Experimental data reported in paper PMC4995099, “Drosophila Nanos acts as a molecular clamp that modulates the RNA-binding and repression activities of Pumilio”.
Positions count from the first letter of the chain named.

T1: Pum PUM-HD WT (EMSA);Nos ZC WT (EMSA) (Drosophila melanogaster?;Drosophila …, UniProt P25822;P25724 1091-1426;289-401, |)
T1 sequence 1: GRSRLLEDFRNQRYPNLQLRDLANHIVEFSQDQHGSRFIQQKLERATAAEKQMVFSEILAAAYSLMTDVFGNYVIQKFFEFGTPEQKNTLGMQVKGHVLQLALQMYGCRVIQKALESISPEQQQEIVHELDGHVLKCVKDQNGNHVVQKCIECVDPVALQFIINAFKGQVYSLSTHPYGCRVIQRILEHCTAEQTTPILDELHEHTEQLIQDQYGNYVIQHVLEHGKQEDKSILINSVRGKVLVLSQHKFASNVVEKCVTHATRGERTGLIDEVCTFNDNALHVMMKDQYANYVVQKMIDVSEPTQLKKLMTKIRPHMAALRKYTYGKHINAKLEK
T1 sequence 2: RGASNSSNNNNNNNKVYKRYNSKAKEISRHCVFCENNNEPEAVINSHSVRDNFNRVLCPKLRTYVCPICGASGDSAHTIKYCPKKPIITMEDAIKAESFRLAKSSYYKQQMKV

T2: Pum PUM-HD WT (EMSA) (UniProt P25822 1091-1426)
T2 sequence: T1 sequence 1

T3: Nos ZC WT (EMSA) (UniProt P25724 289-401)
T3 sequence: T1 sequence 2

T4: Pum F1367S (UniProt P25822 1091-1426, F1367S)
T4 sequence: T1 sequence 1 with F277S

T5: Pum Q1337A (UniProt P25822 1091-1426, Q1337A)
T5 sequence: T1 sequence 1 with Q247A

B1: hb NRE2 RNA 16-nt (ssRNA)
RNA: AAAUUGUACAUAAGCC
B2: Cy5-hb NRE2 RNA (ssRNA)
RNA: UUGUUGUCGAAAAUUGUACAUAAGCC

What was measured:
[1] = biological target: T1, Pum PUM-HD WT (EMSA);Nos ZC WT (EMSA); assay: EMSA; Pum titrated, 400 nM Nos ZC constant; EMSA: 50 mM Tris-HCl pH 7.6, 150 mM NaCl, 2 mM DTT, 2 ug/mL BSA, 0.01% Igepal CA-630, 0.02% bromophenol blue, 20% glycerol, 3 h at 4 C; 1 nM Cy5 RNA or 0.3 nM 32P RNA; conditions: protein: recombinant;recombinant, tags: N-terminal 3xFLAG, Halo-tag removed by TEV;C-terminal V5, copies: 1;1, label: 5' 32P (EMSA), none (crystal)
[2] = biological target: T2, Pum PUM-HD WT (EMSA); assay: EMSA; Pum alone; Kd printed only in figure; EMSA: 50 mM Tris-HCl pH 7.6, 150 mM NaCl, 2 mM DTT, 2 ug/mL BSA, 0.01% Igepal CA-630, 0.02% bromophenol blue, 20% glycerol, 3 h at 4 C; 1 nM Cy5 RNA or 0.3 nM 32P RNA; conditions: protein: recombinant; tags: N-terminal 3xFLAG; Halo-tag removed by TEV; label: 5' 32P (EMSA); none (crystal)
[3] = biological target: T2, Pum PUM-HD WT (EMSA); assay: EMSA; EMSA: 50 mM Tris-HCl pH 7.6, 150 mM NaCl, 2 mM DTT, 2 ug/mL BSA, 0.01% Igepal CA-630, 0.02% bromophenol blue, 20% glycerol, 3 h at 4 C; 1 nM Cy5 RNA or 0.3 nM 32P RNA; conditions: protein: recombinant; tags: N-terminal 3xFLAG; Halo-tag removed by TEV; label: 5' Cy5
[4] = biological target: T3, Nos ZC WT (EMSA); assay: EMSA; up to 1 uM Nos ZC; EMSA: 50 mM Tris-HCl pH 7.6, 150 mM NaCl, 2 mM DTT, 2 ug/mL BSA, 0.01% Igepal CA-630, 0.02% bromophenol blue, 20% glycerol, 3 h at 4 C; 1 nM Cy5 RNA or 0.3 nM 32P RNA; conditions: protein: recombinant; tags: C-terminal V5; Halo-tag removed by TEV; label: 5' Cy5
[5] = biological target: T4, Pum F1367S; assay: EMSA; RNA label form not stated; EMSA: 50 mM Tris-HCl pH 7.6, 150 mM NaCl, 2 mM DTT, 2 ug/mL BSA, 0.01% Igepal CA-630, 0.02% bromophenol blue, 20% glycerol, 3 h at 4 C; 1 nM Cy5 RNA or 0.3 nM 32P RNA; conditions: protein: recombinant; tags: N-terminal 3xFLAG; Halo-tag removed by TEV; label: 5' Cy5
[6] = biological target: T5, Pum Q1337A; assay: as above; conditions: protein: recombinant; tags: N-terminal 3xFLAG; Halo-tag removed by TEV; label: 5' Cy5
[7] = biological target: T1, Pum PUM-HD WT (EMSA);Nos ZC WT (EMSA); assay: EMSA; Nos ZC titrated at 100 nM Pum; high affinity, Kd only in figure; EMSA: 50 mM Tris-HCl pH 7.6, 150 mM NaCl, 2 mM DTT, 2 ug/mL BSA, 0.01% Igepal CA-630, 0.02% bromophenol blue, 20% glycerol, 3 h at 4 C; 1 nM Cy5 RNA or 0.3 nM 32P RNA; conditions: protein: recombinant;recombinant, tags: N-terminal 3xFLAG, Halo-tag removed by TEV;C-terminal V5, copies: 1;1, label: 5' Cy5

Binder | Kd [1] [nM] | fold weaker RNA-binding affinity (Kd ratio) [2] | binding result [3] | binding result [4] | binding result [5] | binding result [6] | binding result [7]
B1 | 8.7 | 3 fold weaker than with Nos ZC | – | – | – | – | –
B2 | – | – | binds | no binding | binds | binds | binds
